In doi:10.1101/2022.03.06.483192:
Values joined by “and” are separate entries in the source; they are usually repeats but may differ in a detail not shown here. Equal entries are not always repeated.

Experiments:
[1] = biological target: MBP-SYCP1αNcore (UniProt Q15431); test: SEC-MALS
[2] = biological target: SYCP1αNcore (UniProt Q15431); test: SEC-MALS
[3] = biological target: SYCP1αNcore (UniProt Q15431); test: ITC
[4] = biological target: SYCP1αN (UniProt Q15431); test: SEC-MALS
Sequence of SYCP1αN (Q15431 101-362): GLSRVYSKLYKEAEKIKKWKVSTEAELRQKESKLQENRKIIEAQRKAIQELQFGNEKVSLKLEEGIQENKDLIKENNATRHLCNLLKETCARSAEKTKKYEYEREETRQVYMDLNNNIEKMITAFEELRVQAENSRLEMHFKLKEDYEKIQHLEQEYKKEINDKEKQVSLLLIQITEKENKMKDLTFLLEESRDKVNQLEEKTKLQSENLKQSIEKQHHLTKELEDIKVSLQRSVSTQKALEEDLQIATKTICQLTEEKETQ

Sequence of SYCP1αNcore (Q15431 206-362): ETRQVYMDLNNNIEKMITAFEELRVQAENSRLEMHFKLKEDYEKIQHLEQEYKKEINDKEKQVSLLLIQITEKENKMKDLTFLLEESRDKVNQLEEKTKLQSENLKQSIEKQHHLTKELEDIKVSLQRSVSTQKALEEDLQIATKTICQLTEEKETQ
Sequence of MBP-SYCP1αNcore (Q15431 206-362): as above

| Substance | stoichiometry N (SYCP1 chains per SYCE3 chain) [1] | stoichiometry N (SYCP1 chains per SYCE3 chain) [2] | KD, single replicate [3] | Kd [3] [nM] | stoichiometry N (SYCP1 chains per SYCE3 chain) [4] |
| --- | --- | --- | --- | --- | --- |
| MBP-SYCE3 (from UniProt A1L190 11-81) (natural protein) | 2 | 2 |  |  |  |
| SYCE3 W41E Y44E (from UniProt A1L190 11-81) (natural protein) |  | 2 | 16 nM and 10 nM and 22 nM | 16 | 2 |
| SYCE3 P53Q (from UniProt A1L190 11-81) (natural protein) |  | 2 |  |  |  |
